According to IntAct's records for PubMed 23001144:

B1: Translocated intimin receptor Tir (Escherichia coli O157:H7), Q7DB77 (parent)
chain: MPIGNLGHNPNVNNSIPPAPPLPSQTDGAGGRGQLINSTGPLGSRALFTPVRNSMADSGDNRASDVPGLPVNPMRLAASEITLNDGFEVLHDHGPLDTLNRQIGSSVFRVETQEDGKHIAVGQRNGVETSVVLSDQEYARLQSIDPEGKDKFVFTGGRGGAGHAMVTVASDITEARQRILELLEPKGTGESKGAGESKGVGELRESNSGAENTTETQTSTSTSSLRSDPKLWLALGTVATGLIGLAATGIVQALALTPEPDSPTTTDPDAAASATETATRDQLTKEAFQNPDNQKVNIDELGNAIPSGVLKDDVVANIEEQAKAAGEEAKQQAIENNAQAQKKYDEQQAKRQEELKVSSGAGYGLSGALILGGGIGVAVTAALHRKNQPVEQTTTTTTTTTTTSARTVENKPANNTPAQGNVDTPGSEDTMESRRSSMASTSSTFFDTSSIGTVQNPYADVKTSLHDSQVPTSNSNTSVQNMGNTDSVVYSTIQHPPRDTTDNGARLLGNPSAGIQSTYARLALSGGLRHDMGGLTGGSNSAVNTSNNPPAPGSHRFV
B2: Translocated intimin receptor Tir (Escherichia coli O127:H6 (strain E2348/69 / EPEC)), B7UM99 (parent)
chain: MPIGNLGNNVNGNHLIPPAPPLPSQTDGAARGGTGHLISSTGALGSRSLFSPLRNSMADSVDSRDIPGLPTNPSRLAAATSETCLLGGFEVLHDKGPLDILNTQIGPSAFRVEVQADGTHAAIGEKNGLEVSVTLSPQEWSSLQSIDTEGKNRFVFTGGRGGSGHPMVTVASDIAEARTKILAKLDPDNHGGRQPKDVDTRSVGVGSASGIDDGVVSETHTSTTNSSVRSDPKFWVSVGAIAAGLAGLAATGIAQALALTPEPDDPTTTDPDQAANAAESATKDQLTQEAFKNPENQKVNIDANGNAIPSGELKDDIVEQIAQQAKEAGEVARQQAVESNAQAQQRYEDQHARRQEELQLSSGIGYGLSSALIVAGGIGAGVTTALHRRNQPAEQTTTTTTHTVVQQQTGGNTPAQGGTDATRAEDASLNRRDSQGSVASTHWSDSSSEVVNPYAEVGGARNSLSAHQPEEHIYDEVAADPGYSVIQNFSGSGPVTGRLIGTPGQGIQSTYALLANSGGLRLGMGGLTSGGESAVSSVNAAPTPGPVRFV

Variants of: B1
Settings: with ptn6_human PTPN6, P29350
Target sequence in this assay (P29350 whole entry): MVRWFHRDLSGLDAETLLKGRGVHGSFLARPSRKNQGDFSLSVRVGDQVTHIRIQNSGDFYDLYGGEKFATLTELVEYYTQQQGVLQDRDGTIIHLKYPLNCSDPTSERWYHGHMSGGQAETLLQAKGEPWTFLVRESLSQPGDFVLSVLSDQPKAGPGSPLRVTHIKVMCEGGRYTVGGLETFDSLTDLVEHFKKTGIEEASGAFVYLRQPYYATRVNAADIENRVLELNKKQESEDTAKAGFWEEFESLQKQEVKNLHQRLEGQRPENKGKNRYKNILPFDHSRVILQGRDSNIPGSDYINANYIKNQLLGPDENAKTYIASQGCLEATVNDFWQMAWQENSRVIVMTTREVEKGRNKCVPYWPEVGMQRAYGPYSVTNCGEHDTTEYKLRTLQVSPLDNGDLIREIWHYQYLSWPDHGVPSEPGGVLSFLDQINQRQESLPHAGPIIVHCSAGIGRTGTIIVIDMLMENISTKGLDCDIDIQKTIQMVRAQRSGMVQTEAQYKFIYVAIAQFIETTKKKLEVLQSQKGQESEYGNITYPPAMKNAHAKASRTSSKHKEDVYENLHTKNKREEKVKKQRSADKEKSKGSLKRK

Variant | effect of a mutation on the interaction
Y490F;Y519F | decreasing interaction

Variants of: B2
Settings: with ptn6_human PTPN6, P29350
Target sequence in this assay (P29350 whole entry): as above

Variant | effect of a mutation on the interaction
Y511F | decreasing interaction
Y483F | decreasing interaction
Y483F;Y511F | decreasing interaction

Variants of: B2
Settings: with ptn6_mouse Ptpn6, P29351
Sequence of ptn6_mouse Ptpn6, P29351 (P29351 whole entry): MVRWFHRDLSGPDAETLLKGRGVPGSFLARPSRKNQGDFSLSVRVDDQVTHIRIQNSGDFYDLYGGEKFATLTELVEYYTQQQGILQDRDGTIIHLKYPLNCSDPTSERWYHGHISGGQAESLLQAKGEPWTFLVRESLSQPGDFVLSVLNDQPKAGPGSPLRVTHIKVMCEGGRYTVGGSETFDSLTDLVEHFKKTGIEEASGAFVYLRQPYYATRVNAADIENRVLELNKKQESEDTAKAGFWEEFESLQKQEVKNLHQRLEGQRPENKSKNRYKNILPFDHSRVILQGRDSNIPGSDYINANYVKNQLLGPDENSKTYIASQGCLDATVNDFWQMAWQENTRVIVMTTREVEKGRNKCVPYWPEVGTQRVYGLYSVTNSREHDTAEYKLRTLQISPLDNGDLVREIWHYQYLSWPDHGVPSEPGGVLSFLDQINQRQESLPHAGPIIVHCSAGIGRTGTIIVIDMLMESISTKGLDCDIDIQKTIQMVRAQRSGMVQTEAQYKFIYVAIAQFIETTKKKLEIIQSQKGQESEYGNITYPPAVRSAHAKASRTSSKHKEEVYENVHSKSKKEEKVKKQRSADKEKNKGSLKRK

Variant | effect of a mutation on the interaction
Y483F;Y511F | decreasing interaction
